Measured values taken from PMC12096953, “Insights into heme degradation and hydrogen peroxide-induced dimerization of human neuroglobin” (Bioscience Reports, 2025).
Residue numbers refer to the chain shown, from its start. In names and notes the source's numbering stands.

B1: wild-type human neuroglobin (natural protein, UniProt Q9NPG2 1-151, looked up)
chain: MERPEPELIRQSWRAVSRSPLEHGTVLFARLFALEPDLLPLFQYNCRQFSSPEDCLSSPEFLDHIRKVMLVIDAAVTNVEDLSSLEEYLASLGRKHRAVGVKLSSFSTVGESLLYMLEKCLGPAFTPATRAAWSQLYGAVVQAMSRGWDGE
notes: human neuroglobin (hNgb), described as a protein of 151 amino acids; Heme b protein; The dimers seen arise after H2O2 treatment and are held by covalent Tyr-Tyr links; also called hNgb; wild-type hNgb
B2: human neuroglobin Y44A variant (natural protein, UniProt Q9NPG2 1-151, looked up)
chain: B1 chain with Y44A
notes: human neuroglobin (hNgb) with Y44A; also called hNgb Y44A
B3: human neuroglobin Y44AC46AC55A variant (natural protein, UniProt Q9NPG2 1-151, looked up)
chain: B1 chain with Y44A, C46A, C55A
notes: human neuroglobin (hNgb) with Y44A, C46A and C55A; also called triple variant
B4: human neuroglobin Y44F variant (natural protein, UniProt Q9NPG2 1-151, looked up)
chain: B1 chain with Y44F
notes: human neuroglobin (hNgb) with Y44F

Key:
[1] = target: the molecule itself; experiment: SEC; HPLC-SEC of wild-type hNgb, 1 µg/µL, 15-fold H2O2, 20 h at 4°C, with or without the spin trap MNP (10 µg/µL)
[2] = target: the molecule itself; experiment: SEC-MALS; HPLC-SEC-PDA-MALS, Superdex 200 10/300 GL, 1x PBS pH 7.4, 25°C, detection at 412 nm; 1 μg/μL protein incubated 20 h at 4°C with different molar excess of H2O2 before the run; monomer to covalent dimer

| Protein | percent dimerization (15-fold H2O2, with MNP) [1] [%] | percent dimerization (15-fold H2O2, without MNP) [1] [%] | stoichiometry N [2] |
| --- | --- | --- | --- |
| B1 | 8.1 | 18.7 | 2 |
| B2 |  |  | 2 |
| B3 |  |  | 2 |
| B4 |  |  | 2 |
